Data as given in patent publication US20150098945A1 (Daiichi Sankyo, published 2015).

Biological target: T1, mouse ROBO4 (pCI-mROBO4-transfected HEK293 cells) (mouse, UniProt Q8C310 28-1012)
T1 sequence: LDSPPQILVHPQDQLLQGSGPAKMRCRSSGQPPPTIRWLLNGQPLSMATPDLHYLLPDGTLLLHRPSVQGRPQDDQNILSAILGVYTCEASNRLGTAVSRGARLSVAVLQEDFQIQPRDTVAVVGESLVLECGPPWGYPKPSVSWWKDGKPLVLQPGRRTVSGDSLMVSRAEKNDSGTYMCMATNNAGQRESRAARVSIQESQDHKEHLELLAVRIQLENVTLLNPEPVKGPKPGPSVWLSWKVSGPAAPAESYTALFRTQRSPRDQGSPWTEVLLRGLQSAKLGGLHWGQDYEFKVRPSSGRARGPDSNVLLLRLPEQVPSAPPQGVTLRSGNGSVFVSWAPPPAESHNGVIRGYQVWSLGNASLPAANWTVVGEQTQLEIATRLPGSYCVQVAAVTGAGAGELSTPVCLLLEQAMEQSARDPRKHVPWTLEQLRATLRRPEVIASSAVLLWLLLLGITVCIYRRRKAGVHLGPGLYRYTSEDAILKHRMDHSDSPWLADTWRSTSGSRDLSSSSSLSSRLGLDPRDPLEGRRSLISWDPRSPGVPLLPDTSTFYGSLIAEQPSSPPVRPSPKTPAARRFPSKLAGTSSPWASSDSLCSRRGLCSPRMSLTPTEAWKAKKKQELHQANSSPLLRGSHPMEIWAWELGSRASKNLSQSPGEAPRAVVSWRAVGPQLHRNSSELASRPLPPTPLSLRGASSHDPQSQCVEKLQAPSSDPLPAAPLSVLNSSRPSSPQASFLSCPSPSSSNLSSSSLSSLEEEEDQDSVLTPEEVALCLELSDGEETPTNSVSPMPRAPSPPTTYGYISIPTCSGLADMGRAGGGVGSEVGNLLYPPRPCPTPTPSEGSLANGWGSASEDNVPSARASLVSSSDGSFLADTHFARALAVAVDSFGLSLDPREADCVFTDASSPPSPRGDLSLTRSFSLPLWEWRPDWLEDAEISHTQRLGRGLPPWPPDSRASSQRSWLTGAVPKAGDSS
Experiment: flow cytometry (FC500), HEK293 cells transfected with pCI-mROBO4, FITC goat anti-human IgG Fc; control histogram IgG (human IgG)

binding result: no binding (tested: 10 µg/mL)
B1: humanized MAb1 antibody H-2143 (antibody, human IgG2, kappa, V domains shown)
VH: EVQLVESGGGLVQPGGSLRLSCAASGFTFSTYAMSWVRQAPGKRLEWVATISQGGTYTYYPDSVKGRFTISRDNAKNTLYLQMNSLRAEDTAVYYCARLIYYDYLDYWGQGTLVTVSS
VL: DIVMTQSPLSLPVTLGEPASISCRSSQSLENENKNLYLNWYLQKPGQSPQLLIYRVSNRFSGVPDRFSGSGSGTDFTLKISRVEAEDVGVYYCLQVTHVPWTFGPGTKVDIKR
notes: Human IgG2 / kappa constant regions; also called hMAb1-H4-type heavy chain + hMAb1-L2-type light chain
